Test results reported in patent US20150132331A1.

Molecular target: HA stem domain construct mutant M6 (A/California/05/2009 (H1N1) HA stem fused to foldon, refolded trimer) (Influenza A virus A/California/05/2009 (H1N1))

“antibody C179 (Mouse IgG) (TAKAR Bio INC.)” was tested. Which fold better recognition than commercial full-length HA did it give?
Its fold better recognition than commercial full-length HA is 30 fold.
